Key:
Test in all cases: cell-based or functional assay
[1] = molecular target: HIV-1 Env of pseudovirus ZM249M.PL1 (HIV-1)
[2] = molecular target: HIV-1 Env of pseudovirus Ce1086_B2 (HIV-1)
[3] = molecular target: HIV-1 Env of pseudovirus Q769.d22 (HIV-1)
[4] = molecular target: HIV-1 Env of pseudovirus 7030102001E5(Rev-) (HIV-1)
[5] = molecular target: HIV-1 Env of pseudovirus TRJO4551.58 (HIV-1)
[6] = molecular target: HIV-1 Env of pseudovirus CNE58 (HIV-1)
[7] = molecular target: HIV-1 Env of pseudovirus 246F C1G (HIV-1)
[8] = molecular target: HIV-1 Env of pseudovirus THRO4156.18 (HIV-1)
[9] = molecular target: HIV-1 Env of pseudovirus Du156.12 (HIV-1)
[10] = molecular target: HIV-1 Env of pseudovirus CNE21 (HIV-1)
[11] = molecular target: HIV-1 Env of pseudovirus Du172.17 (HIV-1)
[12] = molecular target: HIV-1 Env of pseudovirus RHPA4259.7 (HIV-1)
[13] = molecular target: HIV-1 Env of pseudovirus Q23.17 (HIV-1)
[14] = molecular target: HIV-1 Env of pseudovirus HIV-16055-2.3 (HIV-1)
[15] = molecular target: HIV-1 Env of pseudovirus CAP210.2.00.E8 (HIV-1)
[16] = molecular target: HIV-1 Env of pseudovirus HIV-16845-2.22 (HIV-1)
[17] = molecular target: HIV-1 Env of pseudovirus 1056_10_TA11_1826 (HIV-1)
[18] = molecular target: HIV-1 Env of pseudovirus HIV-001428-2.42 (HIV-1)
[19] = molecular target: HIV-1 Env of pseudovirus QH0692.42 (HIV-1)
[20] = molecular target: HIV-1 Env of pseudovirus 1012_11_TC21_3257 (HIV-1)
[21] = molecular target: HIV-1 Env of pseudovirus 6240_08_TA5_4622 (HIV-1)
[22] = molecular target: HIV-1 Env of pseudovirus 3365.v2.c2 (HIV-1)
[23] = molecular target: HIV-1 Env of pseudovirus 1006_11_C3_1601 (HIV-1)
[24] = molecular target: HIV-1 Env of pseudovirus Ce1176_A3 (HIV-1)
[25] = molecular target: HIV-1 Env of pseudovirus Ce0393_C3 (HIV-1)
[26] = molecular target: HIV-1 Env of pseudovirus ZM214M.PL15 (HIV-1)
[27] = molecular target: HIV-1 Env of pseudovirus 249M B10 (HIV-1)
[28] = molecular target: HIV-1 Env of pseudovirus WEAU_d15_410_787 (HIV-1)
[29] = molecular target: HIV-1 Env of pseudovirus ZM109F.PB4 (HIV-1)
[30] = molecular target: HIV-1 Env of pseudovirus Ce703010054_2A2 (HIV-1)
[31] = molecular target: HIV-1 Env of pseudovirus HIV-0013095-2.11 (HIV-1)
[32] = molecular target: HIV-1 Env of pseudovirus Ce704809221_1B3 (HIV-1)
[33] = molecular target: HIV-1 Env of pseudovirus 1394C9G1(Rev-) (HIV-1)
[34] = molecular target: HIV-1 Env of pseudovirus CNE8 (HIV-1)
[35] = molecular target: HIV-1 Env of pseudovirus CNE5 (HIV-1)
[36] = molecular target: HIV-1 Env of pseudovirus 0260.v5.c36 (HIV-1)
[37] = molecular target: HIV-1 Env of pseudovirus T250-4 (HIV-1)

Work on 3BNC117 (antibody) yielded an IC50 [1] of 0.03 µg/mL, an IC80 [1] of 0.11 µg/mL and an IC50 [2] of 0.09 µg/mL. It also gave an IC80 [2] of 0.31 µg/mL, an IC50 [3] of 0.01 µg/mL and an IC80 [3] of 0.04 µg/mL. The IC50 [4] was 0.29 µg/mL, the IC80 [4] was 1.44 µg/mL and the IC50 [5] was 0.05 µg/mL. It also gave an IC80 [5] of 0.19 µg/mL, an IC50 [6] of 0.25 µg/mL and an IC80 [6] of 2.03 µg/mL. The IC50 [7] was 19.3 µg/mL, the IC80 [7] was > 50 µg/mL and the IC50 [8] was 1.76 µg/mL. For the same substance, the IC80 [8] was 10.1 µg/mL, the IC50 [9] was 0.02 µg/mL and the IC80 [9] was 0.08 µg/mL. For the same substance, the IC50 [10] was 45.4 µg/mL, the IC80 [10] was > 50 µg/mL and the IC50 [11] was 1.19 µg/mL. For the same substance, the IC80 [11] was 8.9 µg/mL, the IC50 [12] was < 0.09 µg/mL and the IC80 [12] was < 0.09 µg/mL. The IC50 [13] was 0.005 µg/mL, the IC80 [13] was 0.02 µg/mL and the IC50 [14] was 5.6 µg/mL. For the same substance, the IC80 [14] was > 50 µg/mL, the IC50 [15] was 17.2 µg/mL and the IC80 [15] was > 50 µg/mL. For the same substance, the IC50 [16] was 27.5 µg/mL, the IC80 [16] was > 50 µg/mL and the IC50 [17] was 0.3 µg/mL. The IC80 [17] was 1.82 µg/mL, the IC50 [18] was 0.003 µg/mL and the IC80 [18] was 0.02 µg/mL. It also gave an IC50 [19] of 0.13 µg/mL, an IC80 [19] of 0.49 µg/mL and an IC50 [20] of 0.02 µg/mL. For the same substance, the IC80 [20] was 0.07 µg/mL, the IC50 [21] was 0.33 µg/mL and the IC80 [21] was 1.17 µg/mL. For the same substance, the IC50 [22] was 0.03 µg/mL, the IC80 [22] was 0.1 µg/mL and the IC50 [23] was 0.03 µg/mL. The IC80 [23] was 0.1 µg/mL, the IC50 [24] was 0.22 µg/mL and the IC80 [24] was 0.75 µg/mL. It also gave an IC50 [25] of 0.2 µg/mL, an IC80 [25] of 0.67 µg/mL and an IC50 [26] of 0.06 µg/mL. For the same substance, the IC80 [26] was 0.52 µg/mL, the IC50 [27] was 0.1 µg/mL and the IC80 [27] was 0.4 µg/mL. For the same substance, the IC50 [28] was 0.05 µg/mL, the IC80 [28] was 0.19 µg/mL and the IC50 [29] was 0.14 µg/mL. For the same substance, the IC80 [29] was 0.88 µg/mL, the IC50 [30] was 0.37 µg/mL and the IC80 [30] was 1.67 µg/mL. It also gave an IC50 [31] of 0.33 µg/mL, an IC80 [31] of 2.53 µg/mL and an IC50 [32] of 0.08 µg/mL. For the same substance, the IC80 [32] was 0.31 µg/mL, the IC50 [33] was > 50 µg/mL and the IC80 [33] was > 50 µg/mL.
For 8ANC195 (antibody), the IC50 [1] was > 50 µg/mL, the IC80 [1] was > 50 µg/mL and the IC50 [2] was 4.42 µg/mL. The IC80 [2] was 19.1 µg/mL, the IC50 [3] was 0.26 µg/mL and the IC80 [3] was 1.2 µg/mL. It also gave an IC50 [4] of 0.86 µg/mL, an IC80 [4] of 8.32 µg/mL and an IC50 [5] of 0.19 µg/mL. For the same substance, the IC80 [5] was 1.17 µg/mL, the IC50 [6] was > 50 µg/mL and the IC80 [6] was > 50 µg/mL. The IC50 [7] was 12.8 µg/mL, the IC80 [7] was > 50 µg/mL and the IC50 [8] was > 50 µg/mL. For the same substance, the IC80 [8] was > 50 µg/mL, the IC50 [9] was 0.22 µg/mL and the IC80 [9] was 1.56 µg/mL. The IC50 [10] was 0.27 µg/mL, the IC80 [10] was 1.52 µg/mL and the IC50 [11] was > 30 µg/mL. The IC80 [11] was > 30 µg/mL, the IC50 [12] was 0.34 µg/mL and the IC80 [12] was 1.56 µg/mL. It also gave an IC50 [13] of 2.55 µg/mL, an IC80 [13] of 2.55 µg/mL and an IC50 [14] of 15.3 µg/mL. The IC80 [14] was > 50 µg/mL, the IC50 [15] was > 50 µg/mL and the IC80 [15] was > 50 µg/mL. For the same substance, the IC50 [16] was 3.3 µg/mL, the IC80 [16] was 20.1 µg/mL and the IC50 [17] was > 50 µg/mL. The IC80 [17] was > 50 µg/mL, the IC50 [18] was > 50 µg/mL and the IC80 [18] was > 50 µg/mL. For the same substance, the IC50 [19] was 2.71 µg/mL, the IC80 [19] was 17.1 µg/mL and the IC50 [20] was > 50 µg/mL. The IC80 [20] was > 50 µg/mL, the IC50 [21] was > 50 µg/mL and the IC80 [21] was > 50 µg/mL. The IC50 [22] was > 30 µg/mL, the IC80 [22] was > 30 µg/mL and the IC50 [23] was 0.43 µg/mL. It also gave an IC80 [23] of 1.98 µg/mL, an IC50 [24] of 4.45 µg/mL and an IC80 [24] of 35.2 µg/mL. For the same substance, the IC50 [25] was 6.77 µg/mL, the IC80 [25] was > 50 µg/mL and the IC50 [26] was 0.91 µg/mL. The IC80 [26] was 12.3 µg/mL, the IC50 [27] was > 50 µg/mL and the IC80 [27] was > 50 µg/mL. The IC50 [28] was > 50 µg/mL, the IC80 [28] was > 50 µg/mL and the IC50 [29] was > 30 µg/mL. For the same substance, the IC80 [29] was > 30 µg/mL, the IC50 [30] was 13.6 µg/mL and the IC80 [30] was > 50 µg/mL. The IC50 [31] was 0.32 µg/mL, the IC80 [31] was 1.85 µg/mL and the IC50 [32] was 0.48 µg/mL. The IC80 [32] was 3.52 µg/mL, the IC50 [33] was > 50 µg/mL and the IC80 [33] was > 50 µg/mL.
10-1074 (antibody) was tested, and the IC50 neutralization (TZM.bl) [34] was > 50 µg/mL, the IC80 neutralization (TZM.bl) [34] was > 50 µg/mL and the IC50 neutralization (TZM.bl) [35] was > 50 µg/mL. For the same substance, the IC80 neutralization (TZM.bl) [35] was > 50 µg/mL.
Work on 10E8 (antibody) yielded an IC50 neutralization (TZM.bl) [35] of 1.41 µg/mL and an IC80 neutralization (TZM.bl) [35] of 9.64 µg/mL.
N49P9 (antibody) showed a neutralization IC50 [34] of 0.056 µg/mL, a neutralization IC80 [34] of 0.26 µg/mL and a neutralization MPI [34] of 100. For the same substance, the neutralization IC50 [36] was 0.466 µg/mL, the neutralization IC80 [36] was 1.85 µg/mL and the neutralization MPI [36] was 100. For the same substance, the neutralization IC50 [37] was > 50 µg/mL, the neutralization IC80 [37] was > 50 µg/mL and the neutralization MPI [37] was 25. It also gave a neutralization IC50 [22] of 0.059 µg/mL, a neutralization IC80 [22] of 0.198 µg/mL and a neutralization MPI [22] of 100.

Reference: patent US20240117018A1
